Measurements as given in article PMC7386920, “Evolution of a plant gene cluster in Solanaceae and emergence of metabolic diversity” (eLife, 2020).

Assays:
Experiment in all cases: purified protein
Details in all cases: fatty acid varied 0-500 uM, 5 mM ATP, 0.5 mM CoA, 10 mM MgCl2, 1 mM NADH, pH 7.5, 30 C
[1] = substrate: CC(C)CCCCCCC(=O)O; assay type: biochemical, Solanum lycopersicum
[2] = substrate: CCCCCC(=O)O; assay type: biochemical, Solanum lycopersicum
[3] = substrate: CCCCCCC/C=C/C(=O)O; assay type: biochemical, Solanum lycopersicum
[4] = substrate: CCCCCCCCCCCC(=O)O; assay type: biochemical, Solanum lycopersicum
[5] = substrate: CCCCCCCCCC(=O)O; assay type: biochemical, Solanum lycopersicum
[6] = substrate: CCCCCCCC(=O)O

B1: Sl-AACS1 (Solanum lycopersicum) (protein)
chain: MNKFFKTSNIALRFFNGSVQLPAPTHRVRQLCQLAGSIESTDESRKLLEGVVTSPANYVPLTPISYLERAADVFGDRTSVVFGSSVKYTWEETHSRCLKLASALIQLGISRGDVVATLAPNVPAMQELHFAVPMAGAVLCTLNTRLDSSMVAYLLKHSETKMIFVDQQFLQIAQQALSLLSKDKTIKPPILILIPESNDSSPPVSNIHEYENLLSSGSSNFTIRWPKSEFDPISINYTSGTTSSPKGVVYNHRGAYLNSISAFLCHGMALMPTYLWTLPMFHCNGWCMNWGVAALGGTNVCLRHVSAKDIFESISVNKVTHMSAAPIVLSMMANASPNDRKPLLHKVEIMTGGSPPPPQILSKMEQLGFGVSHGYGLTETYSGATTCLWKPEWDSLPLEERAALKSRQGVKVLCIERVDVRDPETMENVPADGKSIGEIVCRGNTVMSGYLKDVKSTEEAFKGGWFHTGDVAVKHPDGYIEIKDRLKDIIISGGENISTLEVEGVLHSHPAVVEAAVVARPDDHWGQTPCAFVKLKEGSEEITSDEIIKYCRDHLPHYMVPRAVVFQDLPTTSTGKVQKFILREKAKALASLFNTDRKV
notes: full-length ORF in pET28b, His-tagged (tag removal not mentioned), E. coli BL21 Rosetta, Ni-NTA purified
Protein B1 has a Km [1] of 82.1 ± 10.3 µM, a kcat [1] of 0.227 ± 0.01 s⁻¹ and a Km [2] of 214.8 ± 40 µM. The kcat [2] was 0.23 ± 0.02 s⁻¹, the Km [3] was 36.4 ± 4.5 µM and the kcat [3] was 0.0983 ± 0.0033 s⁻¹. It also gave a Km [4] of 68.1 ± 15.8 µM, a kcat [4] of 0.07 ± 0.005 s⁻¹ and a Km [5] of 71.8 ± 9.6 µM. For the same protein, the kcat [5] was 0.0933 ± 0.0033 s⁻¹, the Km [6] was 145.9 ± 10.4 µM and the kcat [6] was 0.22 ± 0.0067 s⁻¹.
